B1: Nucleoporin NIC96 (Chaetomium thermophilum (strain DSM 1495 / CBS 144.50 / IMI 039719)), G0S024 (parent)
chain: MSLIGNGPSVPPSSTKASLFSSPTTSANPTGGLFGSTTGGSSLFAPKTAGSTTTSTTQPTSTTGLGTSLFGTSTTANTQNTANAARPSLFTAGNSIFGTSTTQPGLGASSLTTAATSNQQAQQQQQQRQQHQQAAPTGALFDSLLARNKKQAEGETALGELPSLQLGLADLRQRLRKLGPSSDRPIEPGKAHYFLAASGVDPGAAVRDLGALGLQAKTERTAASVGPAAGPSGVSTTGFGTGLGEVDVDTYLSNLQTKTTLSMIADGLERSARDFDAFLEENVTLEWEAQRKRIYQHFGIKPRDSSVAGTTTAQPTATPSKDGQGTFGRSRRKASQPPPGERPAQRMSILGRSTMMRSVIGTPTRIGAHAPEFSDVEARKDSSGAAVASVDDRFLREKQAKLAEKIREFNDARQRGTPFYICRDLADLESKSGDRHGPHIVEAYRAVMEMVGEHPDAGEAPRERQFAKMYLDPNTQSANALAMRKQILKGATTFLEKQFWNEVNSLIAKYPQDANLGGLPDVVSKIKAYIRLRIARKTLVPDNVELQQINGEYVWAIVFYLLRAGFVTEAAQYVNSNQAHFRAIDRTFSGYINSYASSEERRLKRQMQDRCMSEYNQRIRNAPEGSIDPFRMACYKIIGRCDLSNRSLDGLQTDVNDWIWLQFNLARETDRSLELAGESYGLAELQASIREIGLKHFPKTAAEDTNGSFGMFFYLQILAGMFEQAIAYLYPFSYVDAVHFAIALTYYGLLRPVDAASAGNELLSHNTRSMPQINFGRMLGYYTRDFRAANPAAAVDYLVLICLNADEAAGGQQAQAALCHEALRELVLESREFSRLIGDIRPDGRRIRGVIEERGPLIALGQEDDFIRTITLQAASFADDNGRTTDAVLLYHLAEDYDTVVSIVSRALSEAISLEIGEDPMRLIPVKPRVTNAEGQVEEAAPGSSLSLAAIDDPVELAKAMMGMYERDHMFWQKIREPNRVACSVLLQMADIKSLVEQGRWAECLDKIRALDILPLTARGDPGTIRSYAARFPSLAQPVAINVPNLLMWTVLCCMRQRERLAGGQFAGNESTARLMMDELKQMTVDLMAYTSQLRYRLPPHLHEALARASAD

Variants of: B1
Conditions: with nu192_chatd NUP192, G0S4T0
Chain of nu192_chatd NUP192, G0S4T0 (G0S4T0 whole entry): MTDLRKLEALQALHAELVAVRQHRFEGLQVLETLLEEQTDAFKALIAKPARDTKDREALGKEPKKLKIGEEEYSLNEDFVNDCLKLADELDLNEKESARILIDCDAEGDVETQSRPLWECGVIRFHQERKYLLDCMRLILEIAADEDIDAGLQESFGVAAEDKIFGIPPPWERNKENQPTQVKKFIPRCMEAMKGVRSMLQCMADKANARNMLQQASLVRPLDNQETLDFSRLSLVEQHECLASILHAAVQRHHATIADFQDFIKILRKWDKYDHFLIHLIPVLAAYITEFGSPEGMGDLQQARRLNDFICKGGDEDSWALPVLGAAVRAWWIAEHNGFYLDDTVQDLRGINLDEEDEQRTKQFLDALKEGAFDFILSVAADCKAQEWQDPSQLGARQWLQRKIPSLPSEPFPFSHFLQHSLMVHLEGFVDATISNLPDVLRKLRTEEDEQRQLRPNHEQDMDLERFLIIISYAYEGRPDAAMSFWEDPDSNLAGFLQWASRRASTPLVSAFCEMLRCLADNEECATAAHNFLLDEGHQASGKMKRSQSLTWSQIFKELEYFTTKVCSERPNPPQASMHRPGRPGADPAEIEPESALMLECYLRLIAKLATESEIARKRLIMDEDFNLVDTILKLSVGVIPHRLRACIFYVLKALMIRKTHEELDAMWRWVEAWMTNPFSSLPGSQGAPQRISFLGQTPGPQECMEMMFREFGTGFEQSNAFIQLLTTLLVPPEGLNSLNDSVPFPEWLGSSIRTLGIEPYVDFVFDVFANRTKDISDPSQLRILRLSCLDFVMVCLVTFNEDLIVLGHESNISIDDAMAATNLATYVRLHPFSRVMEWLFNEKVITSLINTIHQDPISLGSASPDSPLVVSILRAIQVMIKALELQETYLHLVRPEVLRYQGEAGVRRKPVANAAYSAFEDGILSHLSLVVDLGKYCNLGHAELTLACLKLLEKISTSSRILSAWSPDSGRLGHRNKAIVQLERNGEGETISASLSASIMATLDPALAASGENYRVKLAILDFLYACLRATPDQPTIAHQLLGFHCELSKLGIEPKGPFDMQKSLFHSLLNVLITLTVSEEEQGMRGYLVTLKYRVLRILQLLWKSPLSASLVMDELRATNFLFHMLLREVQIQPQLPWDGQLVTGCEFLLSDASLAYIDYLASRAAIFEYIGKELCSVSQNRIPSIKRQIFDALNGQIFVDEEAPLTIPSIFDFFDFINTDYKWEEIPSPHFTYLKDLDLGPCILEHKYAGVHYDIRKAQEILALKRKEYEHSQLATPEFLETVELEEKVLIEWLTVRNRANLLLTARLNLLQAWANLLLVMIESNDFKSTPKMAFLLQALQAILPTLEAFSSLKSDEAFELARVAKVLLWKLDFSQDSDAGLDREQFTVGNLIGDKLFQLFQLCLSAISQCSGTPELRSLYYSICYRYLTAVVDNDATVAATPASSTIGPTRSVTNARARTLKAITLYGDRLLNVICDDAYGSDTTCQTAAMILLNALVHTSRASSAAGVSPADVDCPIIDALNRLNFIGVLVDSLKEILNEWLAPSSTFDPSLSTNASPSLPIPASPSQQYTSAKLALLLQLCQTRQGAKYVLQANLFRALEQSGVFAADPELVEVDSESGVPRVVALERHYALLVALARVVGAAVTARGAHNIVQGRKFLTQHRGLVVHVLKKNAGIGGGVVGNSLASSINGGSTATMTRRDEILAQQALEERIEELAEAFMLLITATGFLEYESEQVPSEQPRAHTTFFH

Row | effect of a mutation on the interaction | Variant
1 | decreasing interaction | Y251A;I264A;F275A;W287A
